Assay results reported in article PMC7484505.

Key:
hNav1.7/A1632E (human) = hNav1.7/A1632E (human) (UniProt Q15858)
[1] = target: hNav1.7/A1632E^His-StrepII (human) (UniProt Q15858)
hNav1.7^GFP (human) = hNav1.7^GFP (human) (UniProt Q15858)

“hNav1.7/A1632E (from UniProt Q15858-3 1-1977) (natural protein)” was tested. Which maximal relative persistent current of hNav1.7/A1632E in HEK293T cells (patch clamp), without against with co-expressed difopein (hNav1.7/A1632E (human)) did it give?
Its maximal relative persistent current of hNav1.7/A1632E in HEK293T cells (patch clamp), without against with co-expressed difopein is 13.2%.

For “hNav1.7/A1632E^His-StrepII (from UniProt Q15858-3 1-1977) (natural protein)”, which maximal relative persistent current of hNav1.7/A1632E in X. laevis oocytes (TEVC), without against with co-injected difopein cRNA [1] is on record?
The maximal relative persistent current of hNav1.7/A1632E in X. laevis oocytes (TEVC), without against with co-injected difopein cRNA was -13.6%.

How did the peak current density (whole-cell patch clamp) of the Nav1.7 stable HEK cell line (untagged hNav1.7/WT) on co-expression of hNav1.7/R896Q, against the stable line alone (hNav1.7^GFP (human)) turn out when “hNav1.7/R896Q (from UniProt Q15858-3 1-1977) (natural protein)” was run?
The peak current density (whole-cell patch clamp) of the Nav1.7 stable HEK cell line (untagged hNav1.7/WT) on co-expression of hNav1.7/R896Q, against the stable line alone was 31%.
